Measured values from the supplement of paper PMC9112550, “Optimization of the antimicrobial peptide Bac7 by deep mutational scanning” (BMC Biology, 2022).

Test system: Escherichia coli TOP10
Test: shrunken log2 fold change of peptide-encoding DNA abundance (4.5 h post-induction vs induction); higher = less antimicrobial activity (less host growth inhibition)
Details: time post-induction: 4.5 h; library: site-saturation at positions 5, 18, 19, 20
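Also: peptides expressed intracellularly from a pBAD plasmid library in pooled LB shake-flask culture, induced with 0.3% L-arabinose, DNA abundance read by NGS, three biological replicates, DESeq2 with apeglm shrinkage.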

## RRIRYRPPRLPRPRPRPWQHPRP
  shrunken log2 fold change: -0.185

## RRIRYRPPRLPRPRPRPWTEPRP
  shrunken log2 fold change: -0.0689

## RRIRYRPPRLPRPRPRPYFMPRP
  shrunken log2 fold change: -1.17

## RRIRYRPPRLPRPRPRPYGAPRP
  shrunken log2 fold change: -0.202

## RRIRYRPPRLPRPRPRPYGQPRP
  shrunken log2 fold change: -0.0112

## RRIRYRPPRLPRPRPRPYHHPRP
  shrunken log2 fold change: -0.0688

## RRIRYRPPRLPRPRPRPYHKPRP
  shrunken log2 fold change: -0.249

## RRIRYRPPRLPRPRPRPYHRPRP
  shrunken log2 fold change: -0.236

## RRIRYRPPRLPRPRPRPYIGPRP
  shrunken log2 fold change: -0.0919

## RRIRYRPPRLPRPRPRPYLYPRP
  shrunken log2 fold change: -0.109

## RRIRYRPPRLPRPRPRPYNCPRP
  shrunken log2 fold change: -0.0167

## RRIRYRPPRLPRPRPRPYNHPRP
  shrunken log2 fold change: -1.5

## RRIRYRPPRLPRPRPRPYNQPRP
  shrunken log2 fold change: -0.922

## RRIRYRPPRLPRPRPRPYNRPRP
  shrunken log2 fold change: -0.0152

## RRIRYRPPRLPRPRPRPYPCPRP
  shrunken log2 fold change: -0.268

## RRIRYRPPRLPRPRPRPYPFPRP
  shrunken log2 fold change: -0.0218

## RRIRYRPPRLPRPRPRPYPRPRP
  shrunken log2 fold change: -0.097

## RRIRYRPPRLPRPRPRPYQEPRP
  shrunken log2 fold change: -0.00233

## RRIRYRPPRLPRPRPRPYRCPRP
  shrunken log2 fold change: 0.0155

## RRIRYRPPRLPRPRPRPYRSPRP
  shrunken log2 fold change: 0.0135

## RRIRYRPPRLPRPRPRPYSNPRP
  shrunken log2 fold change: -0.127

## RRIRYRPPRLPRPRPRPYTIPRP
  shrunken log2 fold change: -0.0225

## RRIRYRPPRLPRPRPRPYVEPRP
  shrunken log2 fold change: -0.00822

## RRIRYRPPRLPRPRPRPYWAPRP
  shrunken log2 fold change: -1.11

## RRIRYRPPRLPRPRPRPYWCPRP
  shrunken log2 fold change: -0.0606

## RRIRYRPPRLPRPRPRPYWNPRP
  shrunken log2 fold change: -1.63

## RRIRYRPPRLPRPRPRPYYCPRP
  shrunken log2 fold change: 0.00489
